Experimental data reported in patent publication US20130251728A1 (Regeneron, published 2013).

Legend:
[1] = biological target: T1, mfGCGR-hFc (cynomolgus monkey (Macaca fascicularis)); experiment: SPR Biacore T100, 37C, mAb captured, antigen flowed
T1 construct: also called mfGCGR-N-terminal hFc
Experimental: (§1) Measurements were conducted on a T100 Biacore instrument. Antibodies were captured onto the Biacore sensor chip surface via a covalently-linked anti-human kappa antibody capture surface, and the soluble GCGR proteins were applied to the surface either in a monovalent (hGCGR expressed with a myc-myc-hexa-histidine C-terminal tag) or bivalent (hGCGR and MfGCGR expressed with an N-terminal Fc fusion) format.
(§2) Binding dissociation equilibrium constants and dissociative half-lives were calculated from the kinetic rate constants as: KD=kd/kₐ; t_{1/2}=(In2/kd).

[2] = biological target: T2, hGCGR-mmh (human); experiment: as above
T2 construct: also called REGN547; monovalent hGCGR
T2 chain: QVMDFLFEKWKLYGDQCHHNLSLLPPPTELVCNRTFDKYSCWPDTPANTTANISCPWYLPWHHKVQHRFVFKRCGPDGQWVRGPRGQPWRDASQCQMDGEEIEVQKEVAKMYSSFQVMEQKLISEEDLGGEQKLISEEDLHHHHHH
Experimental: as §1, §2

[3] = biological target: T3, hGCGR-hFc (human); experiment: as above
T3 construct: also called REGN316
Experimental: as §1, §2

[4] = biological target: T1, mfGCGR-hFc; experiment: SPR Biacore T100, 25C, mAb captured, antigen flowed
Experimental: as §1, §2

[5] = biological target: T2, hGCGR-mmh; experiment: as above
Experimental: as §1, §2

[6] = biological target: T3, hGCGR-hFc; experiment: as above
Experimental: as §1, §2

[7] = biological target: human GCGR (full-length, on HEK293 reporter cells) (human, UniProt P47871 27-477); experiment: cell-based or functional assay
[8] = biological target: rat GCGR (full-length, on transiently transfected HEK293 reporter cells) (rat, UniProt P30082 27-485); experiment: cell-based or functional assay
[9] = biological target: T4, monkey (Macaca fascicularis) GCGR (full-length, on HEK293 reporter cells) (monkey (Macaca fascicularis), UniProt P47871 26-477 (human entry)); experiment: cell-based or functional assay
T4 chain: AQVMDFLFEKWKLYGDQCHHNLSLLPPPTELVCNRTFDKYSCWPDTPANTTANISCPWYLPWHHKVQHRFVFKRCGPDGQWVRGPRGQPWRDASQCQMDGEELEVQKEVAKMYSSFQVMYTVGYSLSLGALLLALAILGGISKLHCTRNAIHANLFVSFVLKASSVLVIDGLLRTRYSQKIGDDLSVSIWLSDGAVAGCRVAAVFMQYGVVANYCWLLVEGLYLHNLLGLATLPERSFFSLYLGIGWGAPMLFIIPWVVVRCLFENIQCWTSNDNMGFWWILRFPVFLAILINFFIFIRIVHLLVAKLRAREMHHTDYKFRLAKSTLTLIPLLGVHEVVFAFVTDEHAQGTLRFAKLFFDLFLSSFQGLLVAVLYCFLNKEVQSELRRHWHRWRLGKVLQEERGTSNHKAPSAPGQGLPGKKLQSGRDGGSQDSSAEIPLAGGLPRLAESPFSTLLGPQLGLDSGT

[10] = biological target: mouse GCGR (full-length, on HEK293 reporter cells) (mouse, UniProt Q61606 27-485); experiment: cell-based or functional assay
mouse GCGR (full-length, on HEK293 reporter cells), sequence (Q61606 27-485 limits assumed): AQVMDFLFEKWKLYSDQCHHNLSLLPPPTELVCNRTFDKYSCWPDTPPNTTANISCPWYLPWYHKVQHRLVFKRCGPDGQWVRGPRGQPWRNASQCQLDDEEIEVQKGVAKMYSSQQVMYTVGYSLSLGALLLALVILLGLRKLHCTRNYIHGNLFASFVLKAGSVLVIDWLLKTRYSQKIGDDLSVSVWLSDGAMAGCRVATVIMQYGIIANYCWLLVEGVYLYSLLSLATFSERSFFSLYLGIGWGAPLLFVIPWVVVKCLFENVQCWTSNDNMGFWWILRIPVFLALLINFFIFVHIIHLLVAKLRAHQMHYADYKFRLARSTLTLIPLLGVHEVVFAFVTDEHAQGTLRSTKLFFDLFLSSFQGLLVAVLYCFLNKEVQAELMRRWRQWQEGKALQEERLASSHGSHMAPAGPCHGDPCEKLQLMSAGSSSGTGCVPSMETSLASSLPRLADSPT

T3 sequence (chain, as listed by the source limits assumed): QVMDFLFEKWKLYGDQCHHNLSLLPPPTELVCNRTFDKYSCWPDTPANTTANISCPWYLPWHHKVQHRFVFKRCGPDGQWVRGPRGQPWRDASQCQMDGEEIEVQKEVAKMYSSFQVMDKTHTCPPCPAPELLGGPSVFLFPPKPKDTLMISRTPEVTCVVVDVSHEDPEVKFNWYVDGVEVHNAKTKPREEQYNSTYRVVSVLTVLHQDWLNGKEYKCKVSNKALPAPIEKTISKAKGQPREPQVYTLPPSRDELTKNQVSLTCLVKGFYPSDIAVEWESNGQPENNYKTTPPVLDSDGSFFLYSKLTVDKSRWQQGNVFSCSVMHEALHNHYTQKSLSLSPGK
T1 sequence (chain, as listed by the source limits assumed): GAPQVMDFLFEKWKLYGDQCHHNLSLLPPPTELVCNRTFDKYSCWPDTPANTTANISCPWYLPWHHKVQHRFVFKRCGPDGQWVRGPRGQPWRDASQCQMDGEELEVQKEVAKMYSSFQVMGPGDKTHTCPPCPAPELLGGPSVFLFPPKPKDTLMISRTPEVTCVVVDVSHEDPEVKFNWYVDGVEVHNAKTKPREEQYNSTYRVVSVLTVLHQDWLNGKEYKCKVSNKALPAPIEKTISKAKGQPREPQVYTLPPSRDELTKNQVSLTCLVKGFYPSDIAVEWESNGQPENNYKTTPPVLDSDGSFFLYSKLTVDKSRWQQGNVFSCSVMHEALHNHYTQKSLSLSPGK
human GCGR (full-length, on HEK293 reporter cells), sequence (P47871 27-477): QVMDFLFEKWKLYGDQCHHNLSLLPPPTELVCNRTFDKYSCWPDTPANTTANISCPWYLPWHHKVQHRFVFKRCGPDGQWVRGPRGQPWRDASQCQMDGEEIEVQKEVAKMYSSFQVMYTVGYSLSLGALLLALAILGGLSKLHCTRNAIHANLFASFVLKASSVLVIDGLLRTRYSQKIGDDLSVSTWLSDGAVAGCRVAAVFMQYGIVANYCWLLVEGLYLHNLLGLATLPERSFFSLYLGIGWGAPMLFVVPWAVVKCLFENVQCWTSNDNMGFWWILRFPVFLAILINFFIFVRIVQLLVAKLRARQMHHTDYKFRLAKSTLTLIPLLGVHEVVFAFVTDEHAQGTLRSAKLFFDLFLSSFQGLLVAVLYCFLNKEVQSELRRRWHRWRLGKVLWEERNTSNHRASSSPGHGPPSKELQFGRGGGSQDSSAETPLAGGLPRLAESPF
rat GCGR (full-length, on transiently transfected HEK293 reporter cells), sequence (P30082 27-485 limits assumed): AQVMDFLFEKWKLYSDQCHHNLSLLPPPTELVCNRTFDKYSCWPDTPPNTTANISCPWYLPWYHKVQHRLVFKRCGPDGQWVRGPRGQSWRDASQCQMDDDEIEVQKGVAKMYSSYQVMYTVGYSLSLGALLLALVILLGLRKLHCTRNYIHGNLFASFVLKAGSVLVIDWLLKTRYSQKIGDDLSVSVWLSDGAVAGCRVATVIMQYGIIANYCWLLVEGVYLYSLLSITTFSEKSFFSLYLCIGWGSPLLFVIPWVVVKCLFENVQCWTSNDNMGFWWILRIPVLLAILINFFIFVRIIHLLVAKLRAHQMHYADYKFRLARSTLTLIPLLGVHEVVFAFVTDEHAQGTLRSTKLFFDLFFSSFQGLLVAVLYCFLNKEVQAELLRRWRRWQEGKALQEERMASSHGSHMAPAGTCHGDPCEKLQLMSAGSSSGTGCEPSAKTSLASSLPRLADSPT

Kd [1]: 34.7 pM
T½ [1]: 2.53 h
koff [1]: 7.59e-05 s⁻¹
kon [1]: 2.19e+06 M⁻¹ s⁻¹
Kd [2]: 12800 pM
T½ [2]: 1 min
koff [2]: 0.0202 s⁻¹
kon [2]: 1.58e+06 M⁻¹ s⁻¹
Kd [3]: 77 pM
T½ [3]: 1.77 h
koff [3]: 0.000109 s⁻¹
kon [3]: 1.41e+06 M⁻¹ s⁻¹
Kd [4]: 23.8 pM
T½ [4]: 4.6 h
koff [4]: 4.18e-05 s⁻¹
kon [4]: 1.76e+06 M⁻¹ s⁻¹
Kd [5]: 3540 pM
T½ [5]: 3 min
koff [5]: 0.00374 s⁻¹
kon [5]: 1.06e+06 M⁻¹ s⁻¹
Kd [6]: 238 pM
T½ [6]: 0.683 h
koff [6]: 0.000285 s⁻¹
kon [6]: 1.2e+06 M⁻¹ s⁻¹
IC50, inhibition of 100 pM GCG-stimulated luciferase activity, hGCGR reporter cells [7]: 0.27 nM
IC50, inhibition of 100 pM GCG-stimulated luciferase activity, rat GCGR reporter cells [8]: 1.21 nM
IC50, inhibition of 100 pM GCG-stimulated luciferase activity, mfGCGR reporter cells [9]: 4.03 nM
IC50, inhibition of 100 pM GCG-stimulated luciferase activity, mGCGR reporter cells [10]: 1.13 nM
B1: H4H1321P (antibody, V domains shown)
VH: QVQLVESGGGVVQPGRSLRLSCAASGFTFSSYDMHWVRQAPGKGLEWVAVISSDGRDKYYVDSVKGRFTISRDNSKNTLYLQMNSLRAEDTAVYYCAKEMVYYDILTGYHNYYGMDVWGQGTTVTVS
VL: DIQMTQSPSSLSASVGDRVTITCRASQGINNYLAWFQQKPGKAPKSLIHTASSLQSGVPSKFSGSGSGTDFTLTISSLQPEDFATYYCQQYNTYPLTFGGGTKVEIK
notes: Fully human anti-GCGR antibody; the controls are called isotype-matched hIgG4
